Source: US20230322924A1 (Janssen / Centocor, published 2023)

B1: C33B61 (antibody, V domains shown)
VH: QLQLQESGPGLVKPSETLSLTCTVSGGSIRSTNYYWGWIRQPPGKGLEWIGTIYYSGNTYYNPSLKSRVTISVDTSKNQFSLKLSSVTAADTAVYYCARLADVVVVPAARYFDYWGQGILVTVSS
VL: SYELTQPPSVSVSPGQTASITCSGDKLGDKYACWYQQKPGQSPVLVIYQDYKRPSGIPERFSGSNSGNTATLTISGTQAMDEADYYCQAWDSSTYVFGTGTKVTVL
notes: huIgG1 F405L; also called C33F66; C33H48/C33L58
B2: C33B62 (antibody, IgG1, V domains shown)
VH: QLQLQESGPGLVKPSETLSLTCTVSGGSIRSSGFYWGWIRQPPRKGLEWIGTIYYSGNTYYNPSLKSRVTISVDTSKNQFSLKLSSVTAADTAVYFCARLADVVVVPAARYFDNWGQGTLVTVSS
VL: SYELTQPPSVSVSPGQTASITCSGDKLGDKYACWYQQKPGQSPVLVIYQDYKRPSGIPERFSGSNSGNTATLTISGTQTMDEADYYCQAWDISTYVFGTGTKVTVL
notes: huIgG1 F405L; also called C33F67; C33H49/C33L59
B3: C33B96 (antibody, IgG1, V domains shown)
VH: EVQLVESGGGLVQPGGSLRLSCAASGFTFSSYWMTWVRPAPGKGLEWVANIKRDGGEKYYVDSVKGRFTISRDNAANSLYLQMNSLRVEDTAVYYCARPFYDHFDYWGQGTLVTVSS
VL: SYVLTQPPSVAVAPGQTARITCGGSNIGKISVHWYQQKAGQAPVLVVHDDRARPSGIPERLSGSNSGTTATLTISRVEVGDEADYYCQVWNSSSVHPVFGGGTKLTVL
notes: huIgG1 F405L; also called C33F101; C33H99/C33L37
B4: C33B122 (antibody, IgG1, V domains shown)
VH: QLQLQESGPGLVKPSETLSLTCTVSGGSIRSSSYYWGWIRQPPGKGPEWIGSIYSSGNTYYNPSLKSRVTISVDTSKNQFSLKLISMTAADTAVFYCARLAATIVVPAARYFDCWGQGTLVTVSS
VL: SYELTQPPSVSVSPGQTVSISCSGDRLGDKYACWYQQKPGQSPVLVIYQDSKRPSGIPERFSGSNSGNTATLTISGTQAMDEADYYCQAWDSSSYVFGTGTKVTVL
notes: huIgG1 F405L; also called C33F127; C33H92/C33L30

How the values were obtained:
Human CD33 ECD-HSA [1] = biological target: Human CD33 ECD-HSA (human); assay: SPRi off-rate screen (IBIS MX96), mAb captured by anti-human Fc; column head prints KD
Description: (§1) To begin assessing the biophysical binding properties of the purified mAbs an off-rate screen was performed. 76 OMNIRat anti-CD33 mAbs were tested for binding to recombinant human CD33 ECD-HSA (C33W2) and cyno CD33 ECD-HSA (C33W1) proteins (Janssen production) and the off-rate was measured by IBIS MX96 SPRi array platform (Carterra; Newton, PA). […] The sensor chip was transferred to the Continuous Flow Microspotter (CFM) unit to capture each anti-CD33 mAb at 10 μg/ml for 10 minutes. Binding was measured on IBIS SPRi by single cycle kinetics without regeneration. […] The raw binding data (.trix file format) were referenced and aligned using SprintX software (Wasatch, Ver 1.9.3.2), then exported (.ibmx file format) to Scrubber software (Ver. 2.0) for 1:1 binding kinetic analyses (Wasatch, version 2.0.0.33) to extract the koff results.

Cyno CD33 ECD-HSA [2] = biological target: T1, Cyno CD33 ECD-HSA (cynomolgus monkey); assay: SPRi off-rate screen (IBIS MX96), mAb captured by anti-human Fc; column head prints Cyno CD33 binding KD
T1 construct: Cyno CD33 extracellular domain fused to monomeric human serum albumin and a six-histidine tag; also called C33W1
Description: as §1

Cyno CD33 ECD-HSA [3] = biological target: T1, Cyno CD33 ECD-HSA; assay: ProteOn SPR, mAb captured by anti-human Fc, 1:1 Langmuir fit
Description: (§2) The panel of mAbs was then further characterized for full affinity analysis as well as epitope binning. The binding of anti-CD33 mAbs to recombinant human CD33 ECD-HSA (C33W2) and cyno CD33 ECD-HSA (C33W1) was measured by ProteOn SPR (Bio-Rad). […] Different mAbs were captured on the anti-human Fc IgG surface at 0.25 or 0.5 μg/ml (160-300 RU) in vertical ligand orientation, with the 6th ligand channel as no ligand surface control. Human and cyno CD33-HSA proteins at 0.3 μM concentration in 3-fold dilution series of 5 concentrations flew in as analyte to bind to captured mAbs in the horizontal orientation. A buffer sample was also injected in the 6th channel to monitor the dissociation of captured mAb and baseline stability. […] The raw biding data were processed by double referencing after subtracting the response data from: 1) the inter-spot to correct for the non-specific interactions between the Ag and the empty chip surface; 2) the buffer channel to correct for baseline drifting due to the dissociation of captured mAb surface over time. The processed data at all antigen concentrations for each mAb were globally fit to a 1:1 simple Langmuir binding model to extract estimates of the kinetic (kₒₙ, koff) and affinity (Kd) constants.

Human CD33 ECD-HSA [4] = biological target: Human CD33 ECD-HSA (human); assay: as above
Description: as §2

[5] = biological target: T2, Human CD33 full length, expressed on HEK293F cells (human, UniProt P20138 18-364); assay: flow cytometry, HEK293F cells expressing human CD33
T2 construct: HEK293F cells transduced with lentivirus containing full length human CD33; also called huCD33
Description: (§3) OMNIRat antibodies identified via immunization, v-region cloned and subsequently expressed and purified were characterized further for binding to CD33 expressing cells and binding to recombinant antigens. The purified antibodies were assessed for binding to stably transfected HEK293F cells expressing human CD33 or cyno CD33 (generation described above) along with the parental HEK293F as negative control. Cells were harvested from tissue culture flasks using non-enzymatic dissociation buffer (Thermo Scientific). The flasks were rinsed twice with PBS and dissociation buffer was added to the flask, and the flask was incubated for 10 minutes at 37° C. until the cells became non-adherent. The cells were centrifuged at 300 g for 5 minutes and resuspended at 1.0×10⁶ cells/ml in staining buffer (Becton Dickinson; Franklin Lakes, NJ). 50,000 cells/well of each cell type was plated in 50 μl of staining buffer in round bottom plates (Becton Dickinson). […] 100 μl staining buffer was added to all wells of each plate, the plates were spun at 300 g for 5 min, the buffer was removed, 200 μl staining buffer was added to all wells of each plate, the plates were spun at 300 g for 5 min, and the buffer was removed. 50 μl of 2 μg/ml of Goat-anti-human Fc AF647 secondary antibody (Jackson Immunoresearch; West Grove, PA) was added to all wells of the plates, and the plates were incubated for 30 min at 4° C. 100 μl staining buffer was added to all wells of the plates, the plates were spun at 300 g for 5 min, and the buffer was removed. 200 μl running buffer (running buffer is Staining buffer, 1 mM EDTA, 0.1% Pluronic Acid) was added to all wells of the plates, the plates were spun at 300 g for 5 min, and the buffer was removed. 30 μl running buffer containing Sytox Green live/dead dye (ThermoFisher) was added to all wells with cells and the plates were read on an iQue IntelliCyt flow cytometer. Cells were gated on forward vs. side scatter to eliminate debris, then on singlets and then on live cells which excluded the Sytox stain. Antibody binding was assessed by the mean fluorescence intensity in the AF647 channel.

[6] = biological target: T3, Cyno CD33 full length, expressed on HEK293F cells (cynomolgus monkey); assay: flow cytometry, HEK293F cells expressing cyno CD33
T3 construct: HEK293F cells transduced with lentivirus containing full length cyno CD33 (Genbank XP_005590138.1); also called cyCD33
Description: as §3

Chain of Human CD33 ECD-HSA (human) (chain, as listed by the source): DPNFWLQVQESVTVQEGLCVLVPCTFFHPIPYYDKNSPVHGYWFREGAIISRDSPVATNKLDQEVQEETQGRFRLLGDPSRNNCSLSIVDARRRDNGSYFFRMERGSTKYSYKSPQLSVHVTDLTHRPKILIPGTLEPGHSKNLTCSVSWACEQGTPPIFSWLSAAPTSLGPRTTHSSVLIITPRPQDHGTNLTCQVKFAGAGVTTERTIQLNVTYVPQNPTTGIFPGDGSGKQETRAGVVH
T2 sequence (P20138 18-364 limits assumed): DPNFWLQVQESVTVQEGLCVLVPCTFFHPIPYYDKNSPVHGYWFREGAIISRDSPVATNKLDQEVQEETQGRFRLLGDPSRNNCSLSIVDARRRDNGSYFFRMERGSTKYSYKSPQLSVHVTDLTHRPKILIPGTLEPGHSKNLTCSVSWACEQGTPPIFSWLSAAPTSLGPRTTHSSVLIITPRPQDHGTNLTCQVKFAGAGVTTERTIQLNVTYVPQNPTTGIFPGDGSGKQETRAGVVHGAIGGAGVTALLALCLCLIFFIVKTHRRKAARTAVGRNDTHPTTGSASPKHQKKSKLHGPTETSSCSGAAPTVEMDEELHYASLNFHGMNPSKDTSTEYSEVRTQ

Binder	koff (Human CD33 ECD-HSA [1]) [s⁻¹]	koff (Cyno CD33 ECD-HSA [2]) [s⁻¹]	Kd (Cyno CD33 ECD-HSA [3]) [nM]	koff (Cyno CD33 ECD-HSA [3]) [s⁻¹]	kon (Cyno CD33 ECD-HSA [3]) [M⁻¹ s⁻¹]	Kd (Human CD33 ECD-HSA [4]) [nM]	koff (Human CD33 ECD-HSA [4]) [s⁻¹]	kon (Human CD33 ECD-HSA [4]) [M⁻¹ s⁻¹]	MFI at 0 nM mAb (background) [5] [MFI]	MFI at 0.6 nM mAb [5] [MFI]	MFI at 6 nM mAb [5] [MFI]	MFI at 60 nM mAb [5] [MFI]	MFI at 0 nM mAb (background) [6] [MFI]	MFI at 0.6 nM mAb [6] [MFI]	MFI at 6 nM mAb [6] [MFI]	MFI at 60 nM mAb [6] [MFI]
B1	0.00671	0.00183	2.21	0.00162	734000	21.4	0.0105	489000	79.8	5310	38700	199000	107	1600	8210	13600
B2	0.01	0.00132	1.85	0.00149	805000	24.9	0.0126	507000	75	6090	37400	158000	934	1920	5620	12700
B3	0.000228	0.000819				1.92	0.000436	226000	55.2	188000	476000	476000	86.3	11600	20100	37300
B4	0.00874	0.00145				9.53	0.00712	747000	65	14300	84300	259000	82.5	5840	13900	19700
